{"source": "patent US20230158141A1", "about": "(YAFEI SHANGHAI BIOLOG MEDICINE SCIENCE AND TECHNOLOGY, published 2023)"}
{"molecular_target": "T1, PD-1 (UniProt Q15116 25-167, limits assumed)", "T1 sequence (Q15116 25-167 limits assumed)": "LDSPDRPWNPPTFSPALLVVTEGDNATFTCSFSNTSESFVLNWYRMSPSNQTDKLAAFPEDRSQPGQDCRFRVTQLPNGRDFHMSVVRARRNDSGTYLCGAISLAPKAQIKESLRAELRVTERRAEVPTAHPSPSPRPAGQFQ", "assay": "ELISA, conjugate vs WT antibody", "units": {"binding activity (% of WT)": "%"}}
{"binder": "anti-PD-1 antibody 2 light chain S92C-R4-1 (antibody, human IgG4 S228P, kappa, V domains shown, R4-1 on Cys 92) VH: QVQLVESGGGVVQPGRSLRLDCKASGITFSNSGMHWVRQAPGKGLEWVAVIWYDGSKRYYADSVKGRFTISRDNSKNTLFLQMNSLRAEDTAVYYCATNDDYWGQGTLVTVSS VL: EIVLTQSPATLSLSPGERATLSCRASQSVSSYLAWYQQKPGQAPRLLIYDASNRATGIPARFSGSGSGTDFTLTISSLEPEDFAVYYCQQSCNWPRTFGQGTKVEIKR", "binding activity (% of WT)": 45.5}
{"binder": "anti-PD-1 antibody 2 light chain S31C-R4-1 (antibody, human IgG4 S228P, kappa, V domains shown, R4-1 on Cys 31) VH: QVQLVESGGGVVQPGRSLRLDCKASGITFSNSGMHWVRQAPGKGLEWVAVIWYDGSKRYYADSVKGRFTISRDNSKNTLFLQMNSLRAEDTAVYYCATNDDYWGQGTLVTVSS VL: EIVLTQSPATLSLSPGERATLSCRASQSVSCYLAWYQQKPGQAPRLLIYDASNRATGIPARFSGSGSGTDFTLTISSLEPEDFAVYYCQQSSNWPRTFGQGTKVEIKR", "binding activity (% of WT)": 95.7}
{"binder": "anti-PD-1 antibody 2 light chain S30C-R4-1 (antibody, human IgG4 S228P, kappa, V domains shown, R4-1 on Cys 30) VH: QVQLVESGGGVVQPGRSLRLDCKASGITFSNSGMHWVRQAPGKGLEWVAVIWYDGSKRYYADSVKGRFTISRDNSKNTLFLQMNSLRAEDTAVYYCATNDDYWGQGTLVTVSS VL: EIVLTQSPATLSLSPGERATLSCRASQSVCSYLAWYQQKPGQAPRLLIYDASNRATGIPARFSGSGSGTDFTLTISSLEPEDFAVYYCQQSSNWPRTFGQGTKVEIKR", "binding activity (% of WT)": 34.4}
{"binder": "anti-PD-1 antibody 2 light chain A34C-R4-5 (antibody, human IgG4 S228P, kappa, V domains shown, R4-5 on Cys 34) VH: QVQLVESGGGVVQPGRSLRLDCKASGITFSNSGMHWVRQAPGKGLEWVAVIWYDGSKRYYADSVKGRFTISRDNSKNTLFLQMNSLRAEDTAVYYCATNDDYWGQGTLVTVSS VL: EIVLTQSPATLSLSPGERATLSCRASQSVSSYLCWYQQKPGQAPRLLIYDASNRATGIPARFSGSGSGTDFTLTISSLEPEDFAVYYCQQSSNWPRTFGQGTKVEIKR", "binding activity (% of WT)": 83.9}
{"molecular_target": "T1, PD-1", "assay": "ELISA, OD mutant/OD WT; B=70-90%", "units": {"binding activity (OD after mutation/OD wild type)": "%"}}
{"binder": "anti-PD-1 antibody 2 heavy chain A61C (antibody, human IgG4 S228P, kappa, V domains shown) VH: QVQLVESGGGVVQPGRSLRLDCKASGITFSNSGMHWVRQAPGKGLEWVAVIWYDGSKRYYCDSVKGRFTISRDNSKNTLFLQMNSLRAEDTAVYYCATNDDYWGQGTLVTVSS VL: EIVLTQSPATLSLSPGERATLSCRASQSVSSYLAWYQQKPGQAPRLLIYDASNRATGIPARFSGSGSGTDFTLTISSLEPEDFAVYYCQQSSNWPRTFGQGTKVEIKR", "binding activity (OD after mutation/OD wild type)": "70 to 90"}
{"binder": "anti-PD-1 antibody 2 heavy chain D54C (antibody, human IgG4 S228P, kappa, V domains shown) VH: QVQLVESGGGVVQPGRSLRLDCKASGITFSNSGMHWVRQAPGKGLEWVAVIWYCGSKRYYADSVKGRFTISRDNSKNTLFLQMNSLRAEDTAVYYCATNDDYWGQGTLVTVSS VL: EIVLTQSPATLSLSPGERATLSCRASQSVSSYLAWYQQKPGQAPRLLIYDASNRATGIPARFSGSGSGTDFTLTISSLEPEDFAVYYCQQSSNWPRTFGQGTKVEIKR", "binding activity (OD after mutation/OD wild type)": "70 to 90"}
{"binder": "anti-PD-1 antibody 2 heavy chain I51C (antibody, human IgG4 S228P, kappa, V domains shown) VH: QVQLVESGGGVVQPGRSLRLDCKASGITFSNSGMHWVRQAPGKGLEWVAVCWYDGSKRYYADSVKGRFTISRDNSKNTLFLQMNSLRAEDTAVYYCATNDDYWGQGTLVTVSS VL: EIVLTQSPATLSLSPGERATLSCRASQSVSSYLAWYQQKPGQAPRLLIYDASNRATGIPARFSGSGSGTDFTLTISSLEPEDFAVYYCQQSSNWPRTFGQGTKVEIKR", "binding activity (OD after mutation/OD wild type)": "70 to 90"}
{"binder": "anti-PD-1 antibody 2 heavy chain D101C (antibody, human IgG4 S228P, kappa, V domains shown) VH: QVQLVESGGGVVQPGRSLRLDCKASGITFSNSGMHWVRQAPGKGLEWVAVIWYDGSKRYYADSVKGRFTISRDNSKNTLFLQMNSLRAEDTAVYYCATNDCYWGQGTLVTVSS VL: EIVLTQSPATLSLSPGERATLSCRASQSVSSYLAWYQQKPGQAPRLLIYDASNRATGIPARFSGSGSGTDFTLTISSLEPEDFAVYYCQQSSNWPRTFGQGTKVEIKR", "binding activity (OD after mutation/OD wild type)": "70 to 90"}
